“And” between values parts separate entries of the source, which are not always exact repeats. Identical values can stand only once.
Conditions: Thermal, reversible: yes
[1] = Methanobacterium formicicum, pH 2, DSC, glycine 25 mM, KCl 1.0 M
[2] = Methanobacterium formicicum, pH 3, DSC, glycine 25 mM, KCl 1.0 M
[3] = Methanobacterium formicicum, pH 4, DSC, glycine 25 mM, KCl 0.2 M
[4] = Methanobacterium formicicum, pH 4, DSC, glycine 25 mM, KCl 1.0 M
[5] = Methanobacterium formicicum, pH 5, DSC, acetate 25 mM, KCl 0.2 M
[6] = Methanobacterium formicicum, pH 5, DSC, acetate 25 mM, KCl 1.0 M
[7] = Methanobacterium formicicum, pH 6, DSC, MES 25 mM, KCl 0.2 M
[8] = Methanobacterium formicicum, pH 6, DSC, MES 25 mM, KCl 1.0 M
[9] = Methanothermus fervidus, pH 3, DSC, glycine 25 mM, KCl 0.2 M
[10] = Methanothermus fervidus, pH 4, DSC, glycine 25 mM, KCl 0.2 M
[11] = Methanothermus fervidus, pH 5, DSC, acetate 25 mM, KCl 0.2 M
[12] = Methanothermus fervidus, pH 6, DSC, MES 25 mM, KCl 0.2 M

Chain of DNA-binding protein HMf-1 wild type, P48781 (P48781 whole entry): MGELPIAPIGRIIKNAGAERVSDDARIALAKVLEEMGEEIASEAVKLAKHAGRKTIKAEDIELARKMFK
Chain of Archaeal histone A1 wild type, P48782 (P48782 whole entry): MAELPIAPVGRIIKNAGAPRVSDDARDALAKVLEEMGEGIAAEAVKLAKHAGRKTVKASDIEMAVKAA
Chain of Archaeal histone B wild type, O59627 (O59627 whole entry): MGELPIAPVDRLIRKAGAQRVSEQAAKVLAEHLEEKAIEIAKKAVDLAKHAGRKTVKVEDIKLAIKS

## Archaeal histone A1 wild type, P48782
Methanobacterium formicicum, pH 2, CD, glycine 25 mM, KCl 1.0 M
  Tm: 60.3 °C
[1]
  Tm: 64.7 °C
  unfolding enthalpy (calorimetric): 10.5 kcal/mol
  unfolding enthalpy (van 't Hoff): 115 kcal/mol
Methanobacterium formicicum, pH 3, CD, glycine 25 mM, KCl 1.0 M
  Tm: 73 °C
[2]
  Tm: 77 °C
  unfolding enthalpy (calorimetric): 35.4 kcal/mol
  unfolding enthalpy (van 't Hoff): 109 kcal/mol
Methanobacterium formicicum, pH 4, CD, glycine 25 mM, KCl 1.0 M
  Tm: 91.5 °C
[3]
  Tm: 75.6 °C
  unfolding enthalpy (calorimetric): 45.6 kcal/mol
  unfolding enthalpy (van 't Hoff): 91.1 kcal/mol
[4]
  Tm: 90.3 °C
  unfolding enthalpy (calorimetric): 47.1 kcal/mol
  unfolding enthalpy (van 't Hoff): 129 kcal/mol
Methanobacterium formicicum, pH 5, CD, acetate 25 mM, KCl 0.2 M
  Tm: 74.8 °C
Methanobacterium formicicum, pH 5, CD, acetate 25 mM, KCl 1.0 M
  Tm: 92 °C
[5]
  Tm: 76.9 °C
  unfolding enthalpy (calorimetric): 36.9 kcal/mol
  unfolding enthalpy (van 't Hoff): 114 kcal/mol
[6]
  Tm: 90.9 °C
  unfolding enthalpy (calorimetric): 41 kcal/mol
  unfolding enthalpy (van 't Hoff): 124 kcal/mol
Methanobacterium formicicum, pH 6, CD, MES 25 mM, KCl 0.2 M
  Tm: 70.9 °C
[7]
  Tm: 76.5 °C
  unfolding enthalpy (calorimetric): 63.9 kcal/mol
  unfolding enthalpy (van 't Hoff): 94.9 kcal/mol
[8]
  Tm: 90.5 °C
  unfolding enthalpy (calorimetric): 50.4 kcal/mol
  unfolding enthalpy (van 't Hoff): 122 kcal/mol

## Archaeal histone B wild type, O59627
Pyrococcus furiosus (strain ATCC 43587 / DSM 3638 / JCM 8422 / Vc1), pH 4, CD, glycine 25 mM, KCl 0.2 M
  Tm: 107 °C
Pyrococcus furiosus (strain ATCC 43587 / DSM 3638 / JCM 8422 / Vc1), pH 5, CD, acetate 25 mM, KCl 0.2 M
  Tm: 114 °C
Pyrococcus furiosus (strain ATCC 43587 / DSM 3638 / JCM 8422 / Vc1), pH 7.5, CD, phosphate 25 mM, KCl 0.2 M
  Tm: 110 °C

## DNA-binding protein HMf-1 wild type, P48781
Methanothermus fervidus, pH 2, CD, glycine 25 mM, KCl 1.0 M
  Tm: 94 °C
Methanothermus fervidus, pH 2.5, CD, glycine 25 mM, KCl 0.2 M
  Tm: 78.2 °C
Methanothermus fervidus, pH 2.7, CD, glycine 25 mM, KCl 0.2 M
  Tm: 84.9 °C
Methanothermus fervidus, pH 3, CD, glycine 25 mM, KCl 0.2 M
  Tm: 84.6 °C and 89.3 °C
Methanothermus fervidus, pH 3, CD, glycine 25 mM, KCl 1.0 M
  Tm: 101 °C
[9]
  Tm: 96.1 °C
  unfolding enthalpy (calorimetric): 14.1 kcal/mol
  unfolding enthalpy (van 't Hoff): 139 kcal/mol
Methanothermus fervidus, pH 3.3, CD, glycine 25 mM, KCl 0.2 M
  Tm: 94.1 °C
Methanothermus fervidus, pH 3.7, CD, glycine 25 mM, KCl 0.2 M
  Tm: 103 °C
Methanothermus fervidus, pH 4, CD, glycine 25 mM, KCl 0.2 M
  Tm: 100 °C and 103 °C
[10]
  Tm: 97.6 °C
  unfolding enthalpy (calorimetric): 41.3 kcal/mol
  unfolding enthalpy (van 't Hoff): 158 kcal/mol
[11]
  Tm: 104 °C
  unfolding enthalpy (calorimetric): 37.3 kcal/mol
  unfolding enthalpy (van 't Hoff): 164 kcal/mol
[12]
  Tm: 101 °C
  unfolding enthalpy (calorimetric): 44.5 kcal/mol
  unfolding enthalpy (van 't Hoff): 158 kcal/mol
